Assays:
[1] = test system: human LAIR-1; assay: UT-140 LAIR-1 reporter cell activation (agonism); assay type: cell-based; conditions: upon engagement and crosslinking
Procedure: For cell binding assays, 5e4 UT-140 cells or mouse LAIR-1-transfected 293T cells per well were plated in 200 μL PBS in a 96-well round bottom plate, centrifuged for 4 minutes at 500×g for a single wash, and blocked for 10 minutes on ice with flow cytometry buffer (PBS+2% FBS+0.1 mM EDTA) containing 1:50 dilution of TruStain™ Fc block (Biolegend, San Diego, CA). Cells were subsequently stained for 30 min on ice with titrated concentrations of soluble AF647-labeled LAIR-1 mAb or AF647-labeled isotype control. Cells were then washed 3 times as previously described and binding was measured by flow cytometry using an Attune NXT flow cytometer. For reporter cell assays, flat-bottom 96-well TC plates were coated with 10 μg/mL per well of the indicated antibody in PBS or 2 μg/mL of ligand in 0.01N HCl overnight at 4° C. Wells were washed once with 200 μL sterile PBS. 5e4-to-1e5 cells per well were plated in 100 μL RPMIc containing titrated concentrations of LAIR-1 mAb or isotype control, then incubated overnight at 37° C. The next day, cells were transferred to a 96-well round-bottom plate, centrifuged for 4 minutes at 500×g, and resuspended in 200 μL of flow cytometry buffer. Cells were then centrifuged and resuspended for a total of 3 washes. GFP expression was measured by flow cytometry using an Attune NXT Flow Cytometer.

[2] = test system: LAIR-1; assay: Ligand (collagen) mediated LAIR-1 signaling blockade in UT-140 reporter cells; assay type: cell-based, human
Procedure: FIGS. 24A-24C display h11B3 LAIR-1 mAbs, containing a variable light chain of SEQ ID NO: 16 and a variable heavy chain of SEQ ID NO:27, binds LAIR-1 and blocks its functional signaling triggered by collagen-I in UT-140 reporter cells. Seed 1e4 UT140 reporter cells/100 μl in 96-well flat bottom plate. LAIR1 signaling was induced by 10 μg/ml coated collagen treatment. Blocking of LAIR1 signaling by such h11B3 LAIR-1 mAbs was determined by addition of different concentrations of such h11B3 LAIR-1 mAbs in 100 μL per well. Cultures were maintained for 20 hours, and the GFP was read on flow cytometry.
FIGS. 25A-25B display h11B3 LAIR-1 mAbs, containing a variable light chain of SEQ ID NO: 16 and a variable heavy chain of SEQ ID NO:27, blocks collagen-1 signaling. […] Reporter activation was quantified by flow cytometry. […]
For cell binding assays, 5e4 UT-140 cells or mouse LAIR-1-transfected 293T cells per well were plated in 200 μL PBS in a 96-well round bottom plate, centrifuged for 4 minutes at 500×g for a single wash, and blocked for 10 minutes on ice with flow cytometry buffer (PBS+2% FBS+0.1 mM EDTA) containing 1:50 dilution of TruStain™ Fc block (Biolegend, San Diego, CA). […] Cells were then washed 3 times as previously described and binding was measured by flow cytometry using an Attune NXT flow cytometer. […] GFP expression was measured by flow cytometry using an Attune NXT Flow Cytometer.

[3] = test system: MV4-11 cells; assay: MV4-11-luciferase cell-derived xenograft (CDX) model; assay type: in vivo, NSG mice
Procedure: 2e6 luciferase-expressing MV4-11-Luc or THP-1-Luc cells were suspended in sterile PBS and implanted into NSG mice via tail-vein injection. […] AML cell proliferation was monitored by weekly i.p. injection of D-Luciferin, immediately followed by IVIS bioluminescent imaging and quantification of luminescent signal. […] Imaging Perkin Elmore IVIS Lumina XRMS Series III.
NSG mice were injected with 2e6 THP-1 luciferase cells or 2e6 MV4-11-luciferase cells via tail vein injection. Leukemia progression was quantified by i.p. injection of 100 μL bioluminescent substrate and IVIS imaging 8 minutes post injection. Progression was assessed weekly staring on Day 7 post-challenge. 10 mg/kg mab treatment was performed by i.p injection starting on day 8 and continuing twice a week until the end of the study. For the subcutaneous engraftment model, NSG mice were subcutaneously injected on the right flank with 5e6 MV4-11-Luc-LAIR-1^OE cells. Mice were treated by weekly i.p. injection of 10 mg/kg mAb. Tumor growth was measured by calipers twice weekly until end point.

Sequence of human LAIR-1 (as listed by the source): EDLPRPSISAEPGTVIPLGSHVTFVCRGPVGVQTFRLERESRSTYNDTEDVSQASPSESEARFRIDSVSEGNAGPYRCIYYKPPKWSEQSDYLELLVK

B1: LAIR-1 mAb: humanized agonist anti-LAIR-1 mAb, IgG1 backbone; h11B3 VL-2 (SEQ ID NO: 16), h11B3 VH-3 (SEQ ID NO: 27) (antibody, V domains shown)
VH: EVQLVESGGGLVQPGGSLKLSCAASGFTFNTNAMYWVRQAPGKGLEWVGRIRSKSSNYATYYAASVKGRFTISRDDSKNTLYLQMNSLKTEDTAVYYCVRGGSGFFAYWGQGTLVTVSS
VL: DIQMTQSPSSLSASLGDRVTITCKASEDIYIRLAWYQQKPGKAPRLLISTATSLETGVPSRFSGSGSGTDYTFTISSLQPEDIATYYCQQYWSTPYTFGGGTRLEIK
modifications: IgG1 constant regions; Synthetic: h11B3 VH-3; Synthetic: h11B3 VL-2
In the case of B1, the “human LAIR-1 signaling (agonist)” value [1] is reported as “capable of inducing human LAIR-1 signaling”, the “collagen binding to LAIR-1” value [2] is reported as “blocks collagen binding” and the “leukemic cell growth in vivo” value ([3]; 10 mg/kg i.p. twice a week) is reported as “inhibited leukemic cell growth”. For the same molecule, the “inhibition of LAIR-1 OE AML growth compared to LAIR-1 WT” value ([3]; MV4-11 LAIR-1 OE vs WT cells) was “more strongly inhibiting”, the tumor burden ([3]; biweekly dose of 10 mg/kg, flow cytometry of spleen and bone marrow) was “reduce tumor burden” and the “AML cells in the blood, spleen, and bone marrow” value ([3]; mouse, in vivo) was “nearly absent”. For the same molecule, the “percentage of dead MV4-11 cells in blood, spleen, and bone-marrow” value ([3]; mouse, in vivo) was “increased” and the “MV4-11 in vivo growth, monotherapy” value ([3]; physiologically relevant doses, 10 mg/kg NC525, 100 mg/kg VEN, 0.5 mg/kg AZA) was “significantly better activity than AZA monotherapy”.

— patent publication US20240352121A1, “LAIR-1 AGONISTIC ANTIBODIES AND METHODS OF USE THEREOF” (NEXTCURE, INC., priority 2023, published 2024)
